US11278600B2, “Human alpha-galactosidase variants” (Codexis, Inc., priority 2014, dated 2022)
Substitutions are numbered along the chain they refer to.

B1: 552 (protein)
chain: LDNGLARTPTMGWLHWERFMCNLDCQEEPDSCISEKLFMEMAERMVSEGWKDAGYEYLCIDDCWMAPQRDSEGRLQADPQRFPHGIRQLANHVHSKGLKLGIYADVGNKTCAGFPGSFGYYDIDAQTFADWGVDLLKFDGCYCDSLENLADGYKHMSLALNRTGRSIVYSCEWPLYMWPFQKPNYTEIRQYCNHWRNFADIDDSWASIKSILDWTSRNQERIVDVAGPGGWNDPDMLVIGNFGLSWDQQVTQMALWAIMAAPLFMSNDLRHISPQAKALLQDKDVIAINQDPLGKQGYQLRKGDNFEVWERPLSGDDWAVAIINRQEIGGPRSYTIPVASLGKGVACNPACFITQLLPVKRQLGFYNWTSRLKSHINPTGTVLLQLENTMQMSLKDLL
modifications: Synthetic Polypeptide sequence of Variant No. 552 of mature Human GLA
B2: 558 (protein)
chain: B1 chain with D317A, I353L
modifications: Synthetic Polypeptide sequence of Variant No. 558 of mature Human GLA
B3: 517 (protein)
chain: B1 chain with D2Q, D317A
modifications: Synthetic Polypeptide sequence of Variant No. 517 of mature Human GLA
B4: 564 (protein)
chain: B1 chain with D317A, W368V
modifications: Synthetic Polypeptide sequence of Variant No. 564 of mature Human GLA
B5: 559 (protein)
chain: B1 chain with D317A, L372W
modifications: Synthetic Polypeptide sequence of Variant No. 559 of mature Human GLA
B6: 561 (protein)
chain: B1 chain with D317A, W368L
modifications: Synthetic Polypeptide sequence of Variant No. 561 of mature Human GLA
B7: 554 (protein)
chain: B1 chain with D317A, A346G
modifications: Synthetic Polypeptide sequence of Variant No. 554 of mature Human GLA
B8: 563 (protein)
chain: B1 chain with D317A, W368R
modifications: Synthetic Polypeptide sequence of Variant No. 563 of mature Human GLA
B9: 565 (protein)
chain: B1 chain with D317A, N348E
modifications: Synthetic Polypeptide sequence of Variant No. 565 of mature Human GLA
B10: 560 (protein)
chain: B1 chain with D317A, W368A
modifications: Synthetic Polypeptide sequence of Variant No. 560 of mature Human GLA
B11: 556 (protein)
chain: B1 chain with D317A, G344D
modifications: Synthetic Polypeptide sequence of Variant No. 556 of mature Human GLA
B12: 557 (protein)
chain: B1 chain with D317A, G344S
modifications: Synthetic Polypeptide sequence of Variant No. 557 of mature Human GLA
B13: 553 (protein)
chain: B1 chain with D317Q
modifications: Synthetic Polypeptide sequence of Variant No. 553 of mature Human GLA
B14: 555 (protein)
chain: B1 chain with D317A, G344A
modifications: Synthetic Polypeptide sequence of Variant No. 555 of mature Human GLA
B15: 562 (protein)
chain: B1 chain with D317A, W368N
modifications: Synthetic Polypeptide sequence of Variant No. 562 of mature Human GLA

assay: HTP-analysis of supernatants pretreated with base (MUGal hydrolysis); assay type: biochemical; conditions: activity of the variant/activity of Rd3BB (SEQ ID NO: 13); challenge at pH 9.7
How it was run: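 Fluorescence of released 4-MU (Ex 355 nm, Em 448 nm) after carbonate quench reports MUGal hydrolysis by GLA variants secreted from INVSc1 yeast. Before the acidic (pH 4.3-4.8) 30-180 min reaction at 37° C, supernatants had been pre-incubated at pH 7.0-9.7 for 1-18 h at 37° C.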

Molecule | Relative Activity of GLA Variants After Challenge at pH 9.7
B1 | ++ (++ = >5 to 10 relative activity over Rd3BB (SEQ ID NO: 13))
B2 | + (+ = 1.5 to 5 relative activity over Rd3BB (SEQ ID NO: 13))
B3 | + (+ = 1.5 to 5 relative activity over Rd3BB (SEQ ID NO: 13))
B4 | ++ (++ = >5 to 10 relative activity over Rd3BB (SEQ ID NO: 13))
B5 | ++ (++ = >5 to 10 relative activity over Rd3BB (SEQ ID NO: 13))
B6 | ++ (++ = >5 to 10 relative activity over Rd3BB (SEQ ID NO: 13))
B7 | ++ (++ = >5 to 10 relative activity over Rd3BB (SEQ ID NO: 13))
B8 | ++ (++ = >5 to 10 relative activity over Rd3BB (SEQ ID NO: 13))
B9 | ++ (++ = >5 to 10 relative activity over Rd3BB (SEQ ID NO: 13))
B10 | ++ (++ = >5 to 10 relative activity over Rd3BB (SEQ ID NO: 13))
B11 | + (+ = 1.5 to 5 relative activity over Rd3BB (SEQ ID NO: 13))
B12 | ++ (++ = >5 to 10 relative activity over Rd3BB (SEQ ID NO: 13))
B13 | ++ (++ = >5 to 10 relative activity over Rd3BB (SEQ ID NO: 13))
B14 | + (+ = 1.5 to 5 relative activity over Rd3BB (SEQ ID NO: 13))
B15 | ++ (++ = >5 to 10 relative activity over Rd3BB (SEQ ID NO: 13))

assay: HTP-analysis of supernatants pretreated with acid (MUGal hydrolysis); assay type: biochemical; conditions: activity of the variant/activity of Rd3BB (SEQ ID NO: 13); challenge at pH 3.7
How it was run: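 GLA variants were secreted from INVSc1 yeast grown 66-84 h at 30° C. in SD-Ura with 2% glucose; supernatants were mixed with McIlvaine buffer pH 3.3-4.3 and held at 37° C. for 1-3 h. Residual activity on MUGal at pH 4.8 was then measured by fluorescence.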

Molecule | Relative Activity of GLA Variants After Challenge at pH 3.7
B1 | + (+ = 1.5 to 5 relative activity over Rd3BB (SEQ ID NO: 13))
B2 | − (− = <1.5 relative activity to Rd3BB (SEQ ID NO: 13))
B3 | + (+ = 1.5 to 5 relative activity over Rd3BB (SEQ ID NO: 13))
B4 | + (+ = 1.5 to 5 relative activity over Rd3BB (SEQ ID NO: 13))
B5 | + (+ = 1.5 to 5 relative activity over Rd3BB (SEQ ID NO: 13))
B6 | + (+ = 1.5 to 5 relative activity over Rd3BB (SEQ ID NO: 13))
B7 | + (+ = 1.5 to 5 relative activity over Rd3BB (SEQ ID NO: 13))
B8 | + (+ = 1.5 to 5 relative activity over Rd3BB (SEQ ID NO: 13))
B9 | + (+ = 1.5 to 5 relative activity over Rd3BB (SEQ ID NO: 13))
B10 | ++ (++ = >5 to 10 relative activity over Rd3BB (SEQ ID NO: 13))
B11 | − (− = <1.5 relative activity to Rd3BB (SEQ ID NO: 13))
B12 | + (+ = 1.5 to 5 relative activity over Rd3BB (SEQ ID NO: 13))
B13 | + (+ = 1.5 to 5 relative activity over Rd3BB (SEQ ID NO: 13))
B14 | + (+ = 1.5 to 5 relative activity over Rd3BB (SEQ ID NO: 13))
B15 | + (+ = 1.5 to 5 relative activity over Rd3BB (SEQ ID NO: 13))

assay: HTP-analysis of yeast culture supernatants, no challenge (MUGal hydrolysis); assay type: biochemical; conditions: activity of the variant/activity of Rd3BB (SEQ ID NO: 13)
How it was run: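 GLA variants expressed in yeast INVSc1, secreted into SD-Ura broth over 66-84 h at 30° C; clarified supernatants tested without challenge. Supernatant mixed with McIlvaine buffer pH 4.8 and 2 mM MUGal (citrate/KCl, pH 4.6), 37° C for 30-180 min, carbonate-quenched, fluorescence Ex 355/Em 448 nm.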

Molecule | Relative Activity of GLA Variants After No Challenge (NC)
B1 | + (+ = 1.5 to 5 relative activity over Rd3BB (SEQ ID NO: 13))
B2 | − (− = <1.5 relative activity to Rd3BB (SEQ ID NO: 13))
B3 | + (+ = 1.5 to 5 relative activity over Rd3BB (SEQ ID NO: 13))
B4 | + (+ = 1.5 to 5 relative activity over Rd3BB (SEQ ID NO: 13))
B5 | + (+ = 1.5 to 5 relative activity over Rd3BB (SEQ ID NO: 13))
B6 | + (+ = 1.5 to 5 relative activity over Rd3BB (SEQ ID NO: 13))
B7 | + (+ = 1.5 to 5 relative activity over Rd3BB (SEQ ID NO: 13))
B8 | + (+ = 1.5 to 5 relative activity over Rd3BB (SEQ ID NO: 13))
B9 | + (+ = 1.5 to 5 relative activity over Rd3BB (SEQ ID NO: 13))
B10 | + (+ = 1.5 to 5 relative activity over Rd3BB (SEQ ID NO: 13))
B11 | − (− = <1.5 relative activity to Rd3BB (SEQ ID NO: 13))
B12 | + (+ = 1.5 to 5 relative activity over Rd3BB (SEQ ID NO: 13))
B13 | + (+ = 1.5 to 5 relative activity over Rd3BB (SEQ ID NO: 13))
B14 | + (+ = 1.5 to 5 relative activity over Rd3BB (SEQ ID NO: 13))
B15 | + (+ = 1.5 to 5 relative activity over Rd3BB (SEQ ID NO: 13))
